Test results published in the NTF2 design screens of Basanta et al. (2020).

Assay: protease stability score; higher = more stable; yeast display proteolysis, trypsin and chymotrypsin;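 further: relative to predicted unfolded state with 0 unfolded-like and 1 meaning tenfold more protease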

Sequence	protease stability score
DELEKFIKYVATRLVHDWMTGDEETSKKLLDPHYKTRILYDGRYTELHGREIFVKFVRELLEEIRIHLEVDRIRPIGDKVLLDTRLEIRIGDKRIERSTELHYVVINGRVDQMELVFI	1.32
DELEKHLIHLAEIFIHNKLTGDEEELQRFMDPSVRTIVGEFHYHGRELVTEWLRREWEEMRIHEIHITHVRFQGDKVIIEGRLDIEVNGRRVDTHALIILVVVDGVMKSVKFEII	1.23
DELEKIVEDFLRVLLEHLHTGNWEYLKEYFDPDVRIKIGDKELHGREDFVRRLREWLSRIKNATFEIEVDDNKVQGDKAILHTKVIIRVGDKLIELKTHIIVNKINGVWMVRSQSVE	1.46
DELEKLLEHMLRLMNELLETGDWDWIMSLADPHTKFRLDINGVEHIDHGWEFLHKRIEELGADHREFRVRDIHTQGDKVHSEGEHLIRVNGKEIHIDVRIILLVVNGKVKEIEVRFK	1.7
DELEKLLKLAMEMSLKLFETGDEESLHRLIDPHVRMEIVQGDKFIELHGREDVVRAMKEFRKKFPNLKVELEDHDIQGDKVIWHSVIHVGDKELELIIISLKFDGRWVLESVELKHR	1.4
DELEKLLRYWLREFFDALLTGDEEIFTRYMDPEARLIVDGVEYHGREEVLKHLRDKLREIRIKDYVIHSLDFVNGRIHVDVRQDVVIGEKREKTRLHIHIDVIDGKNHELDIEWR	2.1
DELEKVMHDMADLILHLYLTGDWETFLELADPNVKITIGDKEHHGWKSWKRLLEEELRRVDHIDSKLKRVIAIGDKAHVDGHMEINVNGREYRLDVHIIYVIVNGRHKEIEIHSE	1.31
DELEKYVLDMVMLWIRSHSTGDEDALRRLADPHTRVIINGKELHGMDDVRRHIEEIRIHEEHVHVERVEIQGNKAIVDTSRHIWIDFNGQNIRVDVKTRFHLEKIDGVWYLKEVRIG	1.4
DELELHAEEMYEIWIKLEETGDWEIMLELADPNTKVTWNGVRIHGMEHYLERHHREHRKIKNITTHFILRDIDVIGNKSHVDGEVEIRVNGKTIILRVHFDNVVIDGRFKSHRVIVK	1.03
DELEQLAREVWETLRRAELTGDENRIHEMLDPNVRVDINGRESHGWDSFIYLLRELRFEDMHERDYRIRDVNGRLEITVTGDLEGEFNGKHFNRHTVIIIILEKYDGRWKVHEVKIELR	2.19
DELEQWVKHALEIWVRSLHTGDEDNLSELVDPNVRIDVNGQELHGRELVLHFLSHMRVHIIITRDREIQGNKAIMHLEVHHHQGDKEIHFRFDLIFHKYDGRWRLTEIRIE	1.03
DELERDSRRVMEKLLEILYTGNFDELRKLFDPNVITHIDGRHIHGMHITIRELLRIQEELGYEFVEARMTSTHHQGDKLYVHLEYRIGDKTTRFFWFITKIDGRWWITEMRFE	1.4
DELERDVKQVWDLLLESSRTGDEEVLDKMLDPNARMKVNGQESHGRHAVELLSERIDHIHHIEIERFRTQGNKIEIDIHIDGEVNGRRIRTHMHVIIRKIDGRWFVESWEMK	0.931
DELERILKEQAETIMHFWRTGDEESFNHMADPDYWLRVGDKNVHGREKASEYLRHWLEHIRIHDVKIRDKRVFNGRVFIDMREDGNVDGKRTTRTLHVIIVSIDGKITMVEIRLE	0.996
DELERLAVETIHRFWHSLTTGNEKVLDELLDPNVRVHYNGKDIIGMEHFLKEISEIWRHVEDIKFTDNRVQGEKIRVHGHVDVKEEFDGRKIKIHTRVDYVVHKINGVWVVQSIKIH	1.05
DELERLVEDLVRILLEILLTGDWKILMRLMDPDARFIYGDKQRVGMEEVIKELHRLKEEIRINSIEIKRVEIQGDWVHVDGRSDVEVGDKRRSTEVRYHFHVFNGRMRRINIEVE	1.12
DELERRAEEVFRQWLHYWLTGDFESMERLADPNVRIVINGVELIGMEHVAREIVHRIRHWRVRIQIDRIDNQGDKVHSEGKLIIHQGEKNIHHDITIHFDVVNGKIKHLEIRIQ	2.24
DELERRSRDLVELFITALKTGDEDLFSRLIDPNALTWVGDKEQVGWHTDVKMFEDLGLTNFDFHLRSKEIRIIDGKLHTIINGSININGKETDTEIRITISKINGRWQLSSVFVRLH	0.786
DELERVSERAIKIFLHVFKTGDEHMHERMADPNVRVHVDGQDLHGREETVEHMLHFFERIKNVKIDVEDSKAYGDKVIVHSRLHWNGVTQHVELEMRKVNGRWEVTEIIIH	0.1
DELETYSRRMFQLLLHIMETGDEEKWDHLADPNARLDIDGREFHGREIVSEVHSQIRSELGVDHHQITHFRLHTFDGKVEVEMEVIDKFDGRDVRSRIHIIVIKINGKWFLHEMSYDHG	1.35
DELFKNMHTMAEIFLKLLLTGDEDLIRHYADPNVRLEWIFNGVRFEHVGRESFMEFLHRWLEELRLHDLIVHEVRFQGDKYHMDTRERVRVDGVELDRKTEQMYVVVDGRLHSVHRIIN	0.678
DELHEDAEKAWRYRLEILRTGDPDSILELMDPDVRIEQGDKKFHGRELTEKFMKWLMDHARYEFFHLKDMRTYGNKVETDGYVVGNVDGQEHIVHVHVYSLKVNGRWTIKSIEIK	1.37
DELHEERERASEVARRWVLTGNEEMLVQLADPEVRLHFNGVDFVGRETIHETLRRIHELWGVDRIEVRLKTVHIYDGVVDVHVDLHVGDKEIRDDIHLKKFNGRWEMTTRHVH	0.348
DELHEEYRKIYNIFRHLFETGDWDTWRKLADPHARFEYGEKVSHGREVASETIDWLLEHLRLEHFKLDHFTVQGNFFISDGTEHISYGDKTHTVKTRIILVRVNGVFHLVRIEFV	1.43
DELHEFLERVAERLVRMEHTGNEEELKKLMDPHVRLVVGDKTSVGREELLRFLEELKRKIGWTNFTVHVRRIEVQGDFFNVDMELHVNGRSLHVLIRVQIINGKLESIHWIWI	2.03

Sequence	protease stability score
DELHELVKRYWDRWIESMLTGDFDANHELVDPHARVDIGDKRFHGRELYELHYKRIDHFHIHEINIRHIEVVDGRVHIDVIMHTFEIVNGVKFSHHFRQIIIIEKVDGRWVVRRIIVK	1.01
DELHERLEEVLEVRIEAILTGDWHWLSRMLDPDTRLEVGDKTYHGMEKIYEKLHTETRRMGWRMEVEIKDYRFQGDYLNVDGTIHIKIGDKEIQKRSELKIVVVDGRITEFKIEYR	1.18
DELHETVEHAMERMIESSKTGDWRSLTKLMDPNVRMHIDGVDLIGWEIAVRVILEIRIEHVHIHHIDVQGDKMEVDVSVRIHFNGKHEDRQIVLFAEKVDGRWINRSVEIR	1
DELHHVLEIMLRELITAWRTGDERVLNELFDPHVLIVIGDKYYHGREFVTRWLRHIRIKHSEFHLRRIHIQGDYVHITGEFRIEGEFDGRENTVTHDSKIVTLKIDGRWTFHSIVLE	2.16
DELHKFAEEFMKIFVHNFFTGDWRTMHELLDPHVRLDFNGVEHIGRENVLKFWEEIRRRYDHFHIEVKRVETQGEKAHSDVHLEFRINGQEEHRKQHWHLDVINGRIHSFFVEVE	2.03
DELHKHAEHMAKLIVETLETGDEDKIRELADPNVRMEIGDKRTIGREELTKLLRKWLSEWRVHDMHVESVEMQGDYTHLHTSVRGEVNGRHRELDTRIDVLVVNGRLKSLRLEIR	1.04
DELHKLAEDHLEDFSRAIHTGDEDHLHHLIDPDVRYHQGDKNLHGRESWHEILERIDHVESEDVKMHRIERQGNKLIIDGEWHMRFVYNGQEKRVEMNTIVILLKVNGKWVNEAWHIR	0.463
DELHNLLEHALKIVIELWRTGDWRLIDKMLDPNTLLNFNGKNIHGREEIDRLRKELGIEFFAIEDQDYRRMHIQGDKIELDGDSDIIINGQRRRTHVHLHLEKINGRWVDRRIIFL	0.913
DELHRDVTEAIKLILHAERTGNWRLMMDLMDPHVKLTIGDKEVHGMEAVFNELRTELEELGLDRFESHVRLRDFRIYDGRVDFHVELIFDFNGREIRHDTRFIVEKVDGRWFIKHIQYG	2.13
DELIEEARRFHEKLVDNLETGNEEEFEREIDPNTRVDFNGVEIHGWKHFSKMFKEIRFHQVRLHDIRAVGNKVDSDEDVDGNYNGVRVRHRIHVVARKVNGRWLMESVIFR	1.24
DELIKLAHEFLRIMYDSLRTGDEDRVSELLDPHARLDINGKKRHGRKAILDTYREIWFHDIKIKDVDVIDGVIEIDTRLDLEINGVRFEMKTIIFLTKFNGRWVIEEIRIR	1.21
DELKDIMREVAEIIIRLEHTGDWRVFRKMADPNVRIDIGDFHIIGREEWRHWIEELRERIKNLKVEIRITHIESQGDKVHSDTRLIIRFDGVTEERTQHLHFVIVDGRVTSVRYENR	0.009
DELKEILLRIIEKMLHALLTGNFEELLKNVDPRTRNDINGVDAVGRENIKRVWEEILRRIDHWEEVRIEDFRVQGDKVHIDGRLIMRVDGRREDTTTHLHIIVFNGRVESIKFEIR	1.57
DELKEISDEIVLMFDRAIRTGDEHTMKKLLDPNYLLRVDGVDIVGRERFTEIIRQFDHVDYESHRIRDVSIQGDKIDVDSETDIHFTYNGKRERRTYRVRIIILKINGRWRIHEVHLH	1.77
DELKKILDEYIEDHLRAVHTGDEDRVKHQIDPHVRIDVNGVELIGMEDWKKFLDILGVDNIQVDRYEIKDYHLVGDKATLHEHRDVKYNGVRSRHNINFVVQKIDGKWYFTEYQTE	0.399
DELKKMLKEMEEFHTDLLETGDFEKIIRNVDPHVRIDVNGQEHHGWHEAVEFIREFIERFKNVKIIIEHVEIQGDKLILHMEFRQGEFHSRLIVYSLKVNGRWILKDMEIR	1.67
DELKRDADHAVELLHRVIHTGDEDTFVELIDPHVRLDFNGRELIGWEEVRKLMRDLGWEQIHYEIEDIKVYNGQVEIHSRVNINGRTHQSHYHIEKVNGRWILRHVEYE	1.37
DELKRYLEELVRRVLQATLTGDEDHFSHLADPTTRLILEDEDHHVENHGREDVRRFMEEHFRRVDHWHISLRRLHPVGNKMHSTGTLRVTFDGVKVDVEVRNHFVMVDGRIKFWKIEFI	1.23
DELKSLSRKATEDIVELIITGDEKMLREYMDPNVRVDINGQEIHGREIFFEYIRHLLEHMGVDHLKLDRMEVRDINGQLYIHFRGTTVFNGRTYDEELIWVIVKIDGRWYIEQIEIRFE	1.3
DELKTDFENAIRLYEHATKTGDEHEIRKLLDPHVRVDINGREHHGMEHYSDLLHEFLKRLGADHIQFEFKDSHLQGNKLHLHGIIHVHVGDKTHTIDSSVIYEKVDGRWIISSVWYR	1.01
DELNEITHKFMHEFLRAELTGDWEELHRMLDPHARYIAHIDGREIHFIGRERVLKFMEEWLRRVKNVRIQINDHRVQGDYNHIDGKLKINGKTHDVHIELVMVDGRNHEIHVFIH	1.61
DELNELNKEAFETYHQISETGNETMHSRNADPHVRIDINGVEYHGWEHAERLWKNLGVKHIQFHDIEIQGNKLIITVIVEVNGQETRSEVILLKINGRWLIHSLSFR	1.06
DELQHELERFLEEESRMLKTGDEKRLLELADPDVRVHIDGVDMVGWEALETMWRILKERLGADHVEDVKIRHVDLQGDKADMDVEFDMIQGDKKHYLRSRLIVTKINGRWLLRYVIIK	1.75
DELQKMAKHWIELMIRAQETGDEEELKKYLDPDVRIDVDGRELHGREKADELLKEIRIHEFEIKHMRFQGDKLHLHGTDNQRQGNYEYHVEVTYHLIKINGRWSLREIRVE	0.637
DELQRDSEEAFELVLRVLRTGDEETMSRLADPHTRINVHQGDKIVEFHGREDFERFMHDLLRKFPNMRIDAERVHTFNGQVVINHRLHVNGQERDLHIFSLKIDGRWHLKHVELKLK	1.73
